Results from patent US20100190698A1 (PHYLOGICA, published 2010).

Target: c-Jun (Jun dimers as AP-1 moieties, endogenous in K562/AP1-Luc cells) (UniProt P05412 1-331)
Assay: cell-based or functional assay

Chain of c-Jun (Jun dimers as AP-1 moieties, endogenous in K562/AP1-Luc cells) (P05412 whole entry): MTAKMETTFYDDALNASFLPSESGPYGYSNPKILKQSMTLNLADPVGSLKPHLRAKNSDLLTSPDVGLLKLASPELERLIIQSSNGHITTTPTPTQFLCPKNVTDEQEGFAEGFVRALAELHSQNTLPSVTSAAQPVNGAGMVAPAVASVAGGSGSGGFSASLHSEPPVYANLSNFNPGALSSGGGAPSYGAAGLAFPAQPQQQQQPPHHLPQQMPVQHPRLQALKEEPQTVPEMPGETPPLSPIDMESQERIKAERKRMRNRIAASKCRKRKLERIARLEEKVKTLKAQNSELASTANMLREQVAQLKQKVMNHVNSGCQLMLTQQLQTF

Binder	AP-1 reporter activity (luciferase, K562/AP1-Luc cells), of the level observed for the control sample
RSDYKDDDDKVSINQEHHRLLPL [PYC41]	~48 % of control
RSDYKDDDDKAYQSIRSGGIESSSKRER [PYC35]	~35 % of control
RSDYKDDDDKGLQGRRRQGYQSIKP [PYC36]	~44 % of control
RSDYKDDDDKGLQGRRQPGQQPQGRWSGRALPAHR [PYC38/39]	~47 % of control
